Test results taken from patent US20220144937A1 (JIANGSU HENGRUI MEDICINE, published 2022).

Experiments:
[1] = target: T1, human IL-5 with his-tag (rhIL-5-his) (human, UniProt P05113 20-134); assay: Biacore T200, antibody captured on protein A chip, antigen in flow, 1:1 Langmuir
T1 construct: It was expressed in HEK293 and purified from the supernatant; also called HuIL-5; recombinant human IL-5
T1 sequence: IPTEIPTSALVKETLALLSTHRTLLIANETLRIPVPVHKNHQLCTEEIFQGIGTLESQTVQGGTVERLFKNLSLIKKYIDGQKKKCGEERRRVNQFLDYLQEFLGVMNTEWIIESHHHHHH
Procedure: (§1) The affinity of the murine IL-5 antibody to be tested with human IL-5 was measured by Biacore T200 (GE) instrument.
(§2) The protein A biosensor chip was used to affinity capture of the molecules to be tested, and then the antigen (recombinant human and cyno IL-5 prepared in Example 1) flowed through the surface of the chip, and the reaction signal was detected in real time with the Biacore T200 instrument to obtain the binding and dissociation curves. After the dissociation of each experimental cycle was completed, the biosensor chip was washed and regenerated with glycine-hydrochloric acid regeneration solution (pH 1.5). BIA evaluation version 4.1 GE software was used to fit the data against (1:1) Langmuir model, and the affinity value was obtained and shown in Table 13.

[2] = target: T2, cyno IL-5 with his-tag (cyno (paragraph 156 says rhesus), UniProt P48093 20-134 (rhesus entry)); assay: as above
T2 construct: also called rhesus IL-5 with His-tag; monkey IL-5
T2 sequence: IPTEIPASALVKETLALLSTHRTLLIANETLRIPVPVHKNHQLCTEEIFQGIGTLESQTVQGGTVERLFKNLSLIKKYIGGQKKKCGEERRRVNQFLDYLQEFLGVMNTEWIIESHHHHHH
Procedure: as §1, §2

[3] = target: T1, human IL-5 with his-tag (rhIL-5-his); assay: Biacore
Procedure: as §1, §2

[4] = target: T1, human IL-5 with his-tag (rhIL-5-his); assay: competition ELISA: IL-5 coated, biotin-IL-5Rα (10 µg/ml) as competitor, antibody diluted
Procedure: To identify the ability of IL-5 antibody to block IL-5 from binding to the extracellular region of recombinantly expressed IL-5α receptor protein, IL-5 (5 μg/ml in PBS) was coated on an ELISA plate and incubated at 37° C. for 1 hour; the liquid was removed, 200 μl/well of 5% skimmed milk blocking solution diluted with PBS was added, and incubated for 2.5 hours in a 37° C. incubator for blocking. After blocking, the blocking solution was removed and the plate was washed with PBST buffer (pH 7.4 PBS comprising 0.05% Tween-20) for 5 times; 25 μl of 10 μg/ml IL-5Rα (in 1% BSA) labeled by a biotin labeling kit (Tojin Chemical, LK03) was added, and then 25 μl of gradient-diluted antibody was added (the antibody competed with IL-5Rα for the binding with IL-5) and incubated at 37° C. for 1 hour. After the incubation, the reaction solution in the microtiter plate was removed, the plate was washed for 5 times with PBST, added with 50 μl/well of Streptavidin-Peroxidase Polymer (Sigma, 52438-250UG) diluted with sample dilution solution at 1:600 and incubated for 1 hour at 37° C.

B1: mAb1706 (antibody, V domains shown)
VH: EVQLVESGGGLVQPGRSLKLSCAASGFTFSHYYMAWVRQAPKKGLEWVTSINYEGNSAYYGDSVKGRFTISRDNAKSTLYLQMDSLRSEDTATYYCATETLRESLDYWGQGVMVTVSS
VL: DIQMTQSPSSMSVSLGDRVTITCRASQDIGNYLSWYQQKLGKSPKLMIHSASNLEVGVPSRFSGSRSGSDYSLTINTLESEDPGIYFCLQHKQFPRTFGGGTKLELK
notes: Murine hybridoma antibody
How did the Kd [1] turn out when B1 was run?
Its Kd is 0.0383 nM.

And the Kd [2]?
Its Kd is 0.277 nM.

And the Kd [3]?
The Kd was 0.0383 nM.

What about the IC50 [4] of the same binder?
Its IC50 is 0.4 µg/mL.
